Assay results published in article PMC6106110, “Aspf2 From Aspergillus fumigatus Recruits Human Immune Regulators for Immune Evasion and Cell Damage” (Frontiers in Immunology, 2018).
Where two headings read alike, the source gives them in different places.

Tests used:
[1] = target: Recombinant Aspf2 (A. fumigatus) lacking the N-terminal 19-amino acid signal peptide, His-tagged (Aspergillus fumigatus) (UniProt P79017); test: BLI; Aspf2 loaded on Ni(II)-NTA biosensor; analyte Factor H 190-3,000 nM (150 s association, 150 s dissociation) or plasminogen 687.5-5,500 nM (200 s each); buffer control subtracted, BLITZ software
[2] = target: Aspf2 expressed on the surface of A. fumigatus conidia (Aspergillus fumigatus (endogenous in CEA17 ΔakuB^Ku80 conidia)) (UniProt P79017); test: flow cytometry on cells; wild-type, Δaspf2 and aspf2^C conidia (BSA-treated) incubated with increasing amounts of purified Factor H, FHL-1, FHR1 or plasminogen 1 h at RT; bound protein detected with antibodies; median fluorescence intensity
[3] = target: Aspf2 expressed on the surface of A. fumigatus conidia (Aspergillus fumigatus (endogenous in CEA17 ΔakuB^Ku80 conidia)) (UniProt P79017); test: as above; remark: listed apart in the source
Human Factor H = target: T1, Human Factor H (human, UniProt P08603 19-1231); test: BLI; Aspf2 loaded on Ni(II)-NTA biosensor; analyte Factor H 190-3,000 nM (150 s association, 150 s dissociation) or plasminogen 687.5-5,500 nM (200 s each); buffer control subtracted, BLITZ software; conditions: both partners purified
T1 construct: human complement Factor H, 150-kDa plasma protein composed of 20 short conserved repeats (SCR); also called NHS derived Factor H; source: bought: CompTech (purified human Factor H); also in normal human serum (NHS-EDTA) and C3 depleted serum
T1 sequence (P08603 19-1231): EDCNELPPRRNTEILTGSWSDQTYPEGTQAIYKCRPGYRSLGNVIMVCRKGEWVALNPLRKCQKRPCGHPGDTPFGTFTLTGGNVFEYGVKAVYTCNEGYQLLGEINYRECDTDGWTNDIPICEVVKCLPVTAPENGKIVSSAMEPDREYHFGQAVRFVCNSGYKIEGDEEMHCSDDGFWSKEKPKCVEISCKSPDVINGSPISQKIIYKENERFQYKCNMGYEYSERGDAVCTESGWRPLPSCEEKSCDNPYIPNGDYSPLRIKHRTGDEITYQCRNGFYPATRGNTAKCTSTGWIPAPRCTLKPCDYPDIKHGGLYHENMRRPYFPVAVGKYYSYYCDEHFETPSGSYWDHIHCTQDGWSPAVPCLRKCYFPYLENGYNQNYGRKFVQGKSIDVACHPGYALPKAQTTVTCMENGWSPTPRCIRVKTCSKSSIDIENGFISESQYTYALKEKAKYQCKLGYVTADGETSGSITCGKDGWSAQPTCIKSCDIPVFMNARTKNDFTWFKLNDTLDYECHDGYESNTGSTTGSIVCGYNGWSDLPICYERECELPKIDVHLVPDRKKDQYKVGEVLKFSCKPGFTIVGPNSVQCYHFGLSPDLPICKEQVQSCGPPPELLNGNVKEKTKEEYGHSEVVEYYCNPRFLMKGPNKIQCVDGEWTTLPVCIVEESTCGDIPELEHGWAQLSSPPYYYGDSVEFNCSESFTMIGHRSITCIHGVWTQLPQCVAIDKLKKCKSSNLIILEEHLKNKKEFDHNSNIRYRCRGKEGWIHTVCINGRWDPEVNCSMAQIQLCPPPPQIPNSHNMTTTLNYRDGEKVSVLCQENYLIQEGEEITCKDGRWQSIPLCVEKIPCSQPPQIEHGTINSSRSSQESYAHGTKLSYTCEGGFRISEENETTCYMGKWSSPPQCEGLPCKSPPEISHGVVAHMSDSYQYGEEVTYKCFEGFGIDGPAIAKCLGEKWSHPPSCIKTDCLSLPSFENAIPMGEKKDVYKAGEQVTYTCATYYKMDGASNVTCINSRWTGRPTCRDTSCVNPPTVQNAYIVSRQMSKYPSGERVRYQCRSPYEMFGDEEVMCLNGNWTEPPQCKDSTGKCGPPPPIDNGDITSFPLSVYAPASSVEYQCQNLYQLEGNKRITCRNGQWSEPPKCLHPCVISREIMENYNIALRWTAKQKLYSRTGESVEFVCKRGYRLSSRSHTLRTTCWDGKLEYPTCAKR

| Molecule | Kd [1] | percent lower binding to Δaspf2 conidia than to wild-type conidia (plasminogen at 20 µg/ml) [2] | percent lower binding to Δaspf2 conidia than to wild-type conidia (plasminogen at 20 µg/ml) [3] | Kd (Human Factor H) |
| --- | --- | --- | --- | --- |
| Human plasminogen (natural protein) | 846 nM | 31% | 24% | – |
| Recombinant Aspf2 (A. fumigatus) lacking the N-terminal 19-amino acid signal peptide, His-tagged (natural protein, Aspergillus fumigatus, UniProt P79017 20-310, looked up, Aspf2 of Aspergillus fumigatus, a 310 amino acid-long protein; cloned from cDNA of strain CEA17 akuB^KU80 without the N-terminal 19-amino acid signal peptide; also called ΔN19AspF2; source: Pichia pastoris X33 (pPICZαB), culture supernatant, purified (HisTrap column)) TLPTSPVPIAARATPHEPVFFSWDAGAVTSFPIHSSCNATQRRQIEAGLNEAVELARHAKAHILRWGNESEIYRKYFGNRPTMEAVGAYDVIVNGDKANVLFRCDNPDGNCALEGWGGHWRGANATSETVICDRSYTTRRWLVSMCSQGYTVAGSETNTFWASDLMHRLYHVPAVGQGWVDHFADGYDEVIALAKSNGTESTHDSEALQYFALEAYAFDIAAPGVGCAGESHGPDQGHDTGSASAPASTSTSSSSSGSGSGATTTPTDSPSATIDVPSNCHTHEGGQLHCT | – | – | – | 76 nM |
